Experimental data: patent US20260258394A1, “PLANT ENZYMES WITH IMPROVED ACTIVITY” (MAX-PLANCK-GESELLSCHAFT ZUR FÖRDERUNG DER WISSENSCHAFTEN …, priority 2023, published 2026)

B1: Glycolyl-CoA Carboxylase GCC M5 variant G20R (Methylorubrum extorquens propionyl-CoA carboxylase variant G20R, L100S, Y143H, D407I, I450V, W502R; β-subunit SEQ … (protein)
chain: MKDILEKLEERRAQARLGGREKRLEAQHKRGKLTARERIELLLDHGSFEEFDMFVQHRSTDFGMEKQKIPGDGVVTGWGTVNGRTVFLFSKDFTVFGGSSSEAHAAKIVKVQDMALKMRAPIIGIFDAGGARIQEGVAALGGHGEVFRRNVAASGVIPQISVIMGPCAGGDVYSPAMTDFIFMVRDTSYMFVTGPDVVKTVTNEVVTAEELGGAKVHTSKSSIADGSFENDVEAILQIRRLLDFLPANNIEGVPEIESFDDVNRLDKSLDTLIPDNPNKPYDMGELIRRVVDEGDFFEIQAAYARNIITGFGRVEGRTVGFVANQPLVLAGVLDSDASRKAARFVRFCNAFSIPIVTFVDVPGFLPGTAQEYGGLIKHGAKLLFAYSQATVPLVTIITRKAFGGAYIVMASKHVGADLNYAWPTAQIAVMGAKGAVEIIFRAEIGDADKVAERTKEYEDRFLSPFVAAERGYIDEVIMPHSTRKRIARALGMLRTKEMEQPRKKHDNIPL
notes: overexpressed in E. coli BL21-birA with M. extorquens biotin ligase
B2: Glycolyl-CoA Carboxylase GCC M5 variant S100N (= L100N; Methylorubrum extorquens propionyl-CoA carboxylase variant L100N, Y143H, D407I, I450V, W502R; β-subunit … (protein)
chain: MKDILEKLEERRAQARLGGGEKRLEAQHKRGKLTARERIELLLDHGSFEEFDMFVQHRSTDFGMEKQKIPGDGVVTGWGTVNGRTVFLFSKDFTVFGGSNSEAHAAKIVKVQDMALKMRAPIIGIFDAGGARIQEGVAALGGHGEVFRRNVAASGVIPQISVIMGPCAGGDVYSPAMTDFIFMVRDTSYMFVTGPDVVKTVTNEVVTAEELGGAKVHTSKSSIADGSFENDVEAILQIRRLLDFLPANNIEGVPEIESFDDVNRLDKSLDTLIPDNPNKPYDMGELIRRVVDEGDFFEIQAAYARNIITGFGRVEGRTVGFVANQPLVLAGVLDSDASRKAARFVRFCNAFSIPIVTFVDVPGFLPGTAQEYGGLIKHGAKLLFAYSQATVPLVTIITRKAFGGAYIVMASKHVGADLNYAWPTAQIAVMGAKGAVEIIFRAEIGDADKVAERTKEYEDRFLSPFVAAERGYIDEVIMPHSTRKRIARALGMLRTKEMEQPRKKHDNIPL
notes: as for B1

How the values were obtained:
Format in all cases: biochemical, Methylorubrum extorquens
[1] = substrate: CC(C)(COP(=O)(O)OP(=O)(O)OC[C@H]1O[C@@H](n2cnc3c(N)ncnc32)[C@H](O)[C@@H]1OP(=O)(O)O)[C@@H](O)C(=O)NCCC(=O)NCCSC(=O)CO; experiment: Kinetic characterization of GCC M5 G20R (Vmax, kcat, App. KM) using LC-MS assays; details: other: G20R; means±s.d., n=18, nonlinear regression
Text: (§1) Catalytic rate (kcat) is here defined as the maximum formation rate of tartronyl-CoA out of glycolyl-CoA and HCO3^−. It describes how many mol of the substrate are converted per time and per mol of enzyme. It can only be approximated as it requires 100% substrate saturation of the active sites. Therefore, turnover rates at different initial substrate concentrations can be measured to compute the catalytic rate with the Michaelis-Menten equation.
(§2) The data represent means±s.d., as determined from n=18 independent measurements using nonlinear regression.

[2] = substrate: CC(=O)SCCNC(=O)CCNC(=O)[C@H](O)C(C)(C)COP(=O)(O)OP(=O)(O)OC[C@H]1O[C@@H](n2cnc3c(N)ncnc32)[C@H](O)[C@@H]1OP(=O)(O)O; experiment: as above; details: other: G20R; means±s.d., n=18, nonlinear regression
Text: as §1, §2

[3] = substrate: CC(C)(COP(=O)(O)OP(=O)(O)OC[C@H]1O[C@@H](n2cnc3c(N)ncnc32)[C@H](O)[C@@H]1OP(=O)(O)O)[C@@H](O)C(=O)NCCC(=O)NCCSC(=O)CO; experiment: Kinetic characterization of GCC M5 S100N (Vmax, kcat, App. KM) using LC-MS assays; details: other: S100N; means±s.d., n=18, nonlinear regression
Text: as §1, §2

[4] = substrate: CC(=O)SCCNC(=O)CCNC(=O)[C@H](O)C(C)(C)COP(=O)(O)OP(=O)(O)OC[C@H]1O[C@@H](n2cnc3c(N)ncnc32)[C@H](O)[C@@H]1OP(=O)(O)O; experiment: as above; details: other: S100N; means±s.d., n=18, nonlinear regression
Text: as §1, §2

Protein	Km [1] [µM]	Vmax [1] [µmol/min/mg]	kcat [1] [s⁻¹]	kcat/Km [1] [M⁻¹ s⁻¹]	Km [2] [µM]	Vmax [2] [µmol/min/mg]	kcat [2] [s⁻¹]	kcat/Km [2] [M⁻¹ s⁻¹]	Km [3] [µM]	Vmax [3] [µmol/min/mg]	kcat [3] [s⁻¹]	kcat/Km [3] [M⁻¹ s⁻¹]	Km [4] [µM]	Vmax [4] [µmol/min/mg]	kcat [4] [s⁻¹]	kcat/Km [4] [M⁻¹ s⁻¹]
B1	270 ± 20	4.52	9.8 ± 0.2	36400	380 ± 100	2.25	4.9 ± 0.4	13000								
B2									320 ± 50	0.79	1.7 ± 0.1	5360	630 ± 100	0.174	0.38 ± 0.03	596
